{
  "source": "patent US20250313644A1",
  "about": "(FUTUREGEN BIOPHARMACEUTICAL BEIJING, published 2025)",
  "binders": {"B1": {"name": "M701-3756 (antibody, human IgG1, kappa, L234A L235A, V domains shown)", "VH": "ELQLQESGPGLVKPSETLSLTCAVSGLSFTDFYWAWIRQPPGKGLEWIGEINHKGNTSYNPSLKSRVTVSIDTSKNQFSLKLSSVTAADTAVYFCARDFPNYTFDFWGQGTLVTVSS", "VL": "DIQLTQSPGTLSLSPGERATLSCRASQSVSNHLAWYQQKPGQAPRLLIYGASKRATGIPDRFSGSGSGTDFTLTISRLEPEDFAVYYCQQYADAPLTFGQGTKVEIKR", "notes": "Fc-engineered IgG1; from the original phage library"}, "B2": {"name": "M701-3876 (antibody, human IgG1, kappa, L234A L235A, V domains shown)", "VH": "EVQLQESGPGLVKPSETLSLTCAVSGVSYSDYHWAWIRQPPGKGLEWIGDINHKGKTNYNPSLKSRVTISVDTSKNQFSLKLSSVTAADTAVYYCARDYPNFLFDYWGQGTLVTVSS", "VL": "B1 VL with D1A, L4M, N31S, K53R, D60A, A94S", "notes": "Fc-engineered IgG1"}, "B3": {"name": "single-arm antibody 4035 (antibody, human IgG1, kappa, L234A L235A)", "heavy": "ELQLQESGPGLVKPSETLSLTCAVSGISFNDFHWAWIRQPPGKGLEWIGDINHRGHTSYNPSLKSRVTVSVDTSKNQFSLKLSSVTAADTAVYYCARDYPNFTFDLWGQGTLVTVSSASTKGPSVFPLAPSSKSTSGGTAALGCLVKDYFPEPVTVSWNSGALTSGVHTFPAVLQSSGLYSLSSVVTVPSSSLGTQTYICNVNHKPSNTKVDKKVEPKSCDKTHTCPPCPAPEAAGGPSVFLFPPKPKDTLMISRTPEVTCVVVDVSHEDPEVKFNWYVDGVEVHNAKTKPREEQYNSTYRVVSVLTVLHQDWLNGKEYKCKVSNKALGAPIEKTISKAKGQPREPQVYTLPPCREEMTKNQVSLWCLVKGFYPSDIAVEWESNGQPENNYKTTPPVLDSDGSFFLYSKLTVDKSRWQQGNVFSCSVMHEALHNHYTQKSLSLSPG", "light": "not shown", "chain": "DKTHTCPPCPAPEAAGGPSVFLFPPKPKDTLMISRTPEVTCVVVDVSHEDPEVKFNWYVDGVEVHNAKTKPREEQYNSTYRVVSVLTVLHQDWLNGKEYKCKVSNKALGAPIEKTISKAKGQPREPQVCTLPPSREEMTKNQVSLSCAVKGFYPSDIAVEWESNGQPENNYKTTPPVLDSDGSFFLVSKLTVDKSRWQQGNVFSCSVMHEALHNHYTQKSLSLSPG", "notes": "Single-arm form of 3912; also called M701-4035"}, "B4": {"name": "single-arm antibody 3900 (antibody, human IgG1, kappa, L234A L235A)", "heavy": "EVQLQESGPGLVKPSETLSLTCAVSGVSYSDYHWAWIRQPPGKGLEWIGDINHKGKTNYNPSLKSRVTISVDTSKNQFSLKLSSVTAADTAVYYCARDYPNFLFDYWGQGTLVTVSSASTKGPSVFPLAPSSKSTSGGTAALGCLVKDYFPEPVTVSWNSGALTSGVHTFPAVLQSSGLYSLSSVVTVPSSSLGTQTYICNVNHKPSNTKVDKKVEPKSCDKTHTCPPCPAPEAAGGPSVFLFPPKPKDTLMISRTPEVTCVVVDVSHEDPEVKFNWYVDGVEVHNAKTKPREEQYNSTYRVVSVLTVLHQDWLNGKEYKCKVSNKALGAPIEKTISKAKGQPREPQVYTLPPCREEMTKNQVSLWCLVKGFYPSDIAVEWESNGQPENNYKTTPPVLDSDGSFFLYSKLTVDKSRWQQGNVFSCSVMHEALHNHYTQKSLSLSPG", "light": "not shown", "chain": "B3 chain", "notes": "also called M701-3900"}, "B5": {"name": "single-arm antibody M701-3952 (antibody, human IgG1, kappa, L234A L235A)", "heavy": "B3 heavy with I27V, N30S, F32Y, S58N, V71I, Y94F, Y99F, T103I, L106Y", "light": "not shown", "chain": "B3 chain"}, "B6": {"name": "single-arm antibody 3672 (antibody, human IgG1, kappa, L234A L235A)", "heavy": "ELQLQESGPGLVKPSETLSLTCAVSGLSFTDFYWAWIRQPPGKGLEWIGEINHKGNTSYNPSLKSRVTVSIDTSKNQFSLKLSSVTAADTAVYFCARDFPNYTFDFWGQGTLVTVSSASTKGPSVFPLAPSSKSTSGGTAALGCLVKDYFPEPVTVSWNSGALTSGVHTFPAVLQSSGLYSLSSVVTVPSSSLGTQTYICNVNHKPSNTKVDKKVEPKSCDKTHTCPPCPAPEAAGGPSVFLFPPKPKDTLMISRTPEVTCVVVDVSHEDPEVKFNWYVDGVEVHNAKTKPREEQYNSTYRVVSVLTVLHQDWLNGKEYKCKVSNKALGAPIEKTISKAKGQPREPQVYTLPPCREEMTKNQVSLWCLVKGFYPSDIAVEWESNGQPENNYKTTPPVLDSDGSFFLYSKLTVDKSRWQQGNVFSCSVMHEALHNHYTQKSLSLSPG", "light": "not shown", "chain": "B3 chain", "notes": "also called M701-3672"}, "B7": {"name": "single-arm antibody M701-3990 (antibody, human IgG1, kappa, L234A L235A)", "heavy": "B3 heavy with I27V, N30T, F32Y, S58N, V71I, T103I, F104Y, L106Y", "light": "not shown", "chain": "B3 chain", "notes": "Single-arm form of 4019"}, "B8": {"name": "M701-3912 (antibody, human IgG1, kappa, L234A L235A, V domains shown)", "VH": "ELQLQESGPGLVKPSETLSLTCAVSGISFNDFHWAWIRQPPGKGLEWIGDINHRGHTSYNPSLKSRVTVSVDTSKNQFSLKLSSVTAADTAVYYCARDYPNFTFDLWGQGTLVTVSS", "VL": "DIQMTQSPATLSLSPGERATLSCRASQSVSTYLAWYQQKPGQAPRLLIYGASRRATGIPARFSGSGSGTDFTLTISSLQSEDFAVYYCQQYGDTPLTFGQGTKVEIKR", "notes": "Fc-engineered IgG1"}},
  "key": {"[1]": {"target": "T1, human TL1A (HuTL1A) (human, UniProt O95150 57-251, limits assumed, biotin-labelled in some assays (site not stated))", "T1 sequence": "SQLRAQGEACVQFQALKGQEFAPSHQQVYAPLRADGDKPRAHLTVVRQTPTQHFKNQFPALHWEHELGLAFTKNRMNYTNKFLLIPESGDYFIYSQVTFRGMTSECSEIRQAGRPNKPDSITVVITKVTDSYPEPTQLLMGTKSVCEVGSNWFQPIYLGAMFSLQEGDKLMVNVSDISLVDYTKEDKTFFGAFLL", "experiment": "cell-based or functional assay"}, "[2]": {"target": "T1, human TL1A (HuTL1A)", "experiment": "DLS, antigen and antibody mixed in equal moles", "protocol": "60 μM antigen and antibody was mixed in equal moles, incubated at room temperature for 30 minutes, and then the molecular size was detected using UNCLE or SEC."}, "[3]": {"target": "T1, human TL1A (HuTL1A)", "experiment": "ELISA: biotin-HuTL1A on streptavidin plate, antibody diluted at pH 7.4, HRP-anti-human Fc, OD450", "protocol": "(§1) Corresponding antibodies were added to specific wells, and the antibodies were diluted with sodium dihydrogen phosphate-citrate buffer at pH 7.4, pH 6.0, pH 5.8, or pH 5.6. Binding assay was carried out at room temperature for 30 minutes. After the incubation, the excess antibodies were removed and the wells were washed by PBST. HRP-anti-Human Fc (Sino Biological) was then added into each well and incubated for 30 minutes to detect the bound antibody. The substrate TMB was finally added to develop color for 5-10 minutes. The color development reaction was terminated with 1M sulfuric acid. OD450 nm was recorded on a microplate reader, and the data were processed and fitted by 4 parameter logistic regression."}, "[4]": {"target": "T1, human TL1A (HuTL1A)", "experiment": "ELISA: biotin-HuTL1A on streptavidin plate, antibody diluted at pH 6.0, HRP-anti-human Fc, OD450", "protocol": "as §1"}, "[5]": {"target": "T1, human TL1A (HuTL1A)", "experiment": "ELISA: biotin-HuTL1A on streptavidin plate, antibody diluted at pH 7.4, HRP-anti-human Fc, OD450", "protocol": "as §1", "remark": "listed apart in the source"}, "[6]": {"target": "T1, human TL1A (HuTL1A)", "experiment": "BLI (Gator), His-tagged TL1A on anti-His probe, pH 7.4", "protocol": "(§2) Then a serial dilutions of single-arm M701 antibodies and control antibodies were added."}, "[7]": {"target": "T2, cynomolgus monkey/rhesus monkey TL1A (cynomolgus monkey/rhesus monkey)", "T2 construct": "also called Cynomolgus/rhesus monkey TL1A", "experiment": "BLI (Gator), His-tagged TL1A on anti-His probe, pH 7.4", "protocol": "as §2"}, "[8]": {"target": "T1, human TL1A (HuTL1A)", "experiment": "BLI (Gator), biotin-HuTL1A on SA probe, pH 7.4; BLI (Gator), pH 7.4", "protocol": "The binding kinetics between monoclonal antibodies and antigens was measured using Gator, a label-free biomolecule interaction analyzer based on the principle of biolayer interference (BLI). […] Then a serial dilutions of single-arm M701 antibodies and control antibodies were added. The antibodies interacted with the antigen captured by the SA probe, and the interaction was analyzed by detecting the signal change of the reflection interference spectrum of the probe surface, and finally the binding kinetics constants of the antibodies were calculated. The kinetic constants of antigen and antibodies were measured at pH 7.4 and 5.6 in sodium dihydrogen phosphate-citrate buffer."}},
  "note": "Changes are numbered by the printed parent chain.",
  "data": [
    {"binder": "B1", "values": [
      {"measurement": "IC50 (read off the curve); SEAP reporter in HEK293T/DR3-NFκB cells with soluble TL1A, OD655", "setting": "[1]", "value": "~1", "unit": "nM"},
      {"measurement": "Ave Z-dia (nm) of the antigen-antibody complex", "setting": "[2]", "value": 19.1, "unit": "nm"}
    ]},
    {"binder": "B2", "values": [
      {"measurement": "IC50 (read off the curve); SEAP reporter in HEK293T/DR3-NFκB cells with soluble TL1A, OD655", "setting": "[1]", "value": "~1", "unit": "nM"},
      {"measurement": "Ave Z-dia (nm) of the antigen-antibody complex", "setting": "[2]", "value": 18.7, "unit": "nm"}
    ]},
    {"binder": "B3", "values": [
      {"measurement": "EC50 (read off the curve)", "setting": "[3]", "value": "~0.3", "unit": "nM"},
      {"measurement": "EC50 (read off the curve)", "setting": "[4]", "value": "~1", "unit": "nM"},
      {"measurement": "EC50 (read off the curve)", "setting": "[5]", "value": "~0.3", "unit": "nM"}
    ]},
    {"binder": "B4", "values": [
      {"measurement": "EC50 (read off the curve)", "setting": "[3]", "value": "~0.5", "unit": "nM"},
      {"measurement": "EC50 (read off the curve)", "setting": "[4]", "value": "~0.9", "unit": "nM"},
      {"measurement": "EC50 (read off the curve)", "setting": "[5]", "value": "~0.5", "unit": "nM"}
    ]},
    {"binder": "B5", "values": [
      {"measurement": "Kd", "setting": "[6]", "value": 5.68, "unit": "nM"},
      {"measurement": "koff", "setting": "[6]", "value": 0.00346, "unit": "s⁻¹"},
      {"measurement": "kon", "setting": "[6]", "value": 610000, "unit": "M⁻¹ s⁻¹"},
      {"measurement": "Kd", "setting": "[7]", "value": 5.75, "unit": "nM"},
      {"measurement": "koff", "setting": "[7]", "value": 0.0036, "unit": "s⁻¹"},
      {"measurement": "kon", "setting": "[7]", "value": 626000, "unit": "M⁻¹ s⁻¹"},
      {"measurement": "Kd", "setting": "[8]", "value": 5.25, "unit": "nM"},
      {"measurement": "koff", "setting": "[8]", "value": 0.00306, "unit": "s⁻¹"},
      {"measurement": "kon", "setting": "[8]", "value": 582000, "unit": "M⁻¹ s⁻¹"},
      {"measurement": "EC50 (read off the curve)", "setting": "[3]", "value": "~0.5", "unit": "nM"},
      {"measurement": "EC50 (read off the curve)", "setting": "[5]", "value": "~0.5", "unit": "nM"}
    ]},
    {"binder": "B6", "values": [
      {"measurement": "EC50 (read off the curve)", "setting": "[3]", "value": "~3", "unit": "nM"},
      {"measurement": "EC50 (read off the curve)", "setting": "[5]", "value": "~3", "unit": "nM"}
    ]},
    {"binder": "B7", "values": [
      {"measurement": "Kd", "setting": "[6]", "value": 4.89, "unit": "nM"},
      {"measurement": "koff", "setting": "[6]", "value": 0.00214, "unit": "s⁻¹"},
      {"measurement": "kon", "setting": "[6]", "value": 438000, "unit": "M⁻¹ s⁻¹"},
      {"measurement": "Kd", "setting": "[7]", "value": 4.51, "unit": "nM"},
      {"measurement": "koff", "setting": "[7]", "value": 0.00208, "unit": "s⁻¹"},
      {"measurement": "kon", "setting": "[7]", "value": 462000, "unit": "M⁻¹ s⁻¹"},
      {"measurement": "Kd", "setting": "[8]", "value": 4.26, "unit": "nM"},
      {"measurement": "koff", "setting": "[8]", "value": 0.00168, "unit": "s⁻¹"},
      {"measurement": "kon", "setting": "[8]", "value": 394000, "unit": "M⁻¹ s⁻¹"},
      {"measurement": "EC50 (read off the curve)", "setting": "[3]", "value": "~0.4", "unit": "nM"},
      {"measurement": "EC50 (read off the curve)", "setting": "[4]", "value": "~1", "unit": "nM"},
      {"measurement": "EC50 (read off the curve)", "setting": "[5]", "value": "~0.4", "unit": "nM"}
    ]},
    {"binder": "B8", "values": [
      {"measurement": "Ave Z-dia (nm) of the antigen-antibody complex", "setting": "[2]", "value": 18.5, "unit": "nm"}
    ]}
  ]
}
